Publication PMC6210734, “Unliganded Progesterone Receptor Governs Estrogen Receptor Gene Expression by Regulating DNA Methylation in Breast Cancer Cells”
Numbering of substitutions follows the chain as printed.

B1: PRE no CpG (dsDNA)
DNA 1: GTTGAGTCAGAACAGTTTGTTCTCTAGGCAC
DNA 2: GTGCCTAGAGAACAAACTGTTCTGACTCAAC
B2: PRE two CpGs, unmethylated (dsDNA)
DNA 1: B1 DNA 1 with A14G, T18C
DNA 2: B1 DNA 2 with A14G, T18C

Columns and labels:
[1] = target: T1, Progesterone receptor isoform B (PR-B) (Homo sapiens, UniProt P06401 1-933); assay: EMSA; EMSA: 20 min at room temperature, 5% acrylamide-bisacrylamide gel; buffer, salt and pH not stated; details: protein: recombinant; chain copies: 2; (radioactive); blunt
T1 sequence (P06401 whole entry, canonical isoform): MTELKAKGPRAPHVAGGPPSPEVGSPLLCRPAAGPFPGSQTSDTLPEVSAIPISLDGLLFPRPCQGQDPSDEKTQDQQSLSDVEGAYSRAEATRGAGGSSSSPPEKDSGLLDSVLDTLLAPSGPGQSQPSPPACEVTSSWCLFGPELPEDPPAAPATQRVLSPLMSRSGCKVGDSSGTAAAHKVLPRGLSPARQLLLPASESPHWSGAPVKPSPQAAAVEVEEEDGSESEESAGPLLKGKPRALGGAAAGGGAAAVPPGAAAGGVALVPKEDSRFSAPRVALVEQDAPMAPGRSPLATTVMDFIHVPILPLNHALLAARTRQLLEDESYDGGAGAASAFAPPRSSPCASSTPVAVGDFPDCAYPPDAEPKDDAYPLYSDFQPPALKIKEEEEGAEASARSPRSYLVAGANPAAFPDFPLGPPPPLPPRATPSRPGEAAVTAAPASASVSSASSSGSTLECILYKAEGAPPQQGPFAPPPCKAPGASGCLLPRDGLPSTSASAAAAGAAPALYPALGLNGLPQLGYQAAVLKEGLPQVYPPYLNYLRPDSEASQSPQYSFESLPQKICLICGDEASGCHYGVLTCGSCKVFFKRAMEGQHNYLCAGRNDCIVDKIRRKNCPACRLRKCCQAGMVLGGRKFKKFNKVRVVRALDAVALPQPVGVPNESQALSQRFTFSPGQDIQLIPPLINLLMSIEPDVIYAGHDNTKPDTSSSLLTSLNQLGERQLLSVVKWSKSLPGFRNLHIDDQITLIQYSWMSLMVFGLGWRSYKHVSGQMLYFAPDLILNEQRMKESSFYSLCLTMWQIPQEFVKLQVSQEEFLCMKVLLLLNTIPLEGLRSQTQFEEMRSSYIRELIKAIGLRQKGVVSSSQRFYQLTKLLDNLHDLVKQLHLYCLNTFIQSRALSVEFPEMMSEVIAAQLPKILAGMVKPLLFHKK

[2] = target: T1, Progesterone receptor isoform B (PR-B); assay: competition; 100-fold unlabeled competitor vs labeled no-CpG PRE, 2.4 ug PR-B; high-affinity competitor; EMSA: 20 min at room temperature, 5% acrylamide-bisacrylamide gel; buffer, salt and pH not stated; details: protein: recombinant; chain copies: 2; (radioactive); blunt

Row | Binder | binding result [1] | binding result [2]
1 | B1 | binds | –
2 | B2 | – | binds
